Assay results reported in PMC3286832 (2011).
Blank lines part the entries; values can stand above or below the binder they belong to.

Target: T1, Dnmt3a K44me0 peptide 39-50 (Mus musculus, UniProt O88508)
T1 chain: SATARKVGRPGR

Kd: ~5 µM
B1: GLP SET (protein)
chain: not shown

Kd: ~5 µM
B2: G9a SET (protein)
chain: not shown
